Source: patent US7037656B2, “Methods and compositions for identifying ligands for nuclear receptors” (priority 2000, dated 2006)
Blank lines part the entries; values can stand above or below the molecule they belong to.

Columns and labels:
Test in all cases: cell-based or functional assay
[1] = biological target: full-length mosquito A. aegypti ultraspiracle receptor, a-form (AaUSPa) (Aedes aegypti)
[2] = biological target: full-length mosquito A. aegypti ultraspiracle receptor, b-form (AaUSPb) (Aedes aegypti)
[3] = biological target: full-length spruce budworm C. fumiferana ultraspiracle receptor (CfUSP) (Choristoneura fumiferana)
[4] = biological target: spruce budworm C. fumiferana ultraspiracle receptor with deletion of the A/B transactivation domain (Cf ΔAB USP) (Choristoneura fumiferana)
[5] = biological target: D. melanogaster ultraspiracle receptor with deletion of the AB transactivation domain (Dm ΔAB USP) (Drosophila melanogaster) (UniProt P20153)
[6] = biological target: T1, full-length D. melanogaster ultraspiracle receptor (DmUSP) (Drosophila melanogaster)
T1 sequence (P20153 1-508, looked up): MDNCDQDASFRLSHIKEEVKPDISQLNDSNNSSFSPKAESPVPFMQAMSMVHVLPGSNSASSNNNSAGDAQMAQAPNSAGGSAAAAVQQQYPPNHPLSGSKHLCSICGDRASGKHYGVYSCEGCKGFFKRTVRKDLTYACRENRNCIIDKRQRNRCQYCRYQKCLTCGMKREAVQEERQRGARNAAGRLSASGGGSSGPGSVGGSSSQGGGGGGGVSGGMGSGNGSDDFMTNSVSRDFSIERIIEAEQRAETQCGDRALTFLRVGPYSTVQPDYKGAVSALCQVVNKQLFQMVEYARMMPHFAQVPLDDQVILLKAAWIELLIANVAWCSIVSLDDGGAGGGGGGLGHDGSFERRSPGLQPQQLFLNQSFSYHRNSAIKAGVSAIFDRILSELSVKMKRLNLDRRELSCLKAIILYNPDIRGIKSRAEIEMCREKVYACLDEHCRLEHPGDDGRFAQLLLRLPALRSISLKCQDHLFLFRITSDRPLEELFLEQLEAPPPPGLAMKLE

[7] = biological target: mouse RXR γ (retinoid X receptor γ) (mouse) (UniProt P28705)
[8] = biological target: human RXR α (retinoid X receptor α) (human) (UniProt P19793)
[9] = biological target: mosquito A. aegypti ultraspiracle receptor with deletion of the A/B transactivation domain (Aa ΔAB USP) (Aedes aegypti)
[10] = biological target: mouse RXR β (retinoid X receptor β) (mouse) (UniProt P28704)
Sequence of mouse RXR β (retinoid X receptor β) (mouse) (P28704 111-520 limits assumed): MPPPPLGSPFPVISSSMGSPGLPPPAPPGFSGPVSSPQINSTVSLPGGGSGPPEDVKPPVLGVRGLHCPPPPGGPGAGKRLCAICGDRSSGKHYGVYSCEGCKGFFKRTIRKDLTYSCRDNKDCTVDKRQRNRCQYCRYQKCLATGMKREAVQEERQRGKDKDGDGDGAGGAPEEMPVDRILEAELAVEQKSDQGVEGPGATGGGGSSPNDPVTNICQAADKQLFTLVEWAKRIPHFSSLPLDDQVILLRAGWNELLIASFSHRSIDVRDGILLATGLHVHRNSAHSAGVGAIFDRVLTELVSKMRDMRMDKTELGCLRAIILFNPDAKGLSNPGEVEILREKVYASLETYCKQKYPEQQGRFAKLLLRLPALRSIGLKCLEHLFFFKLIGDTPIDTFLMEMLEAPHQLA

Sequence of human RXR α (retinoid X receptor α) (human) (P19793 whole entry, the tested form may be a part): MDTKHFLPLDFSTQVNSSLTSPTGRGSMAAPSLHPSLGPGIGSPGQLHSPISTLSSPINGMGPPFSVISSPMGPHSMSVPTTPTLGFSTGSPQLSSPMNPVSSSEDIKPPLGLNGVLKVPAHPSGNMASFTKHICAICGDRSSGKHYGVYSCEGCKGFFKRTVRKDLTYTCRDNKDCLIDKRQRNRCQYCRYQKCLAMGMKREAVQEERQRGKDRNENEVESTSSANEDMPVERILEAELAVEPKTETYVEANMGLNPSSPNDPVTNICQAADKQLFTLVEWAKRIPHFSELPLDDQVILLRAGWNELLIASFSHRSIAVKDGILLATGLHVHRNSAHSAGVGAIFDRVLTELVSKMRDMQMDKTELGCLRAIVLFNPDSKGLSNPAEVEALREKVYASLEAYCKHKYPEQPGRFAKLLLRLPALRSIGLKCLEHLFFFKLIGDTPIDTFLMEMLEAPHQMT
Sequence of mouse RXR γ (retinoid X receptor γ) (mouse) (P28705 whole entry): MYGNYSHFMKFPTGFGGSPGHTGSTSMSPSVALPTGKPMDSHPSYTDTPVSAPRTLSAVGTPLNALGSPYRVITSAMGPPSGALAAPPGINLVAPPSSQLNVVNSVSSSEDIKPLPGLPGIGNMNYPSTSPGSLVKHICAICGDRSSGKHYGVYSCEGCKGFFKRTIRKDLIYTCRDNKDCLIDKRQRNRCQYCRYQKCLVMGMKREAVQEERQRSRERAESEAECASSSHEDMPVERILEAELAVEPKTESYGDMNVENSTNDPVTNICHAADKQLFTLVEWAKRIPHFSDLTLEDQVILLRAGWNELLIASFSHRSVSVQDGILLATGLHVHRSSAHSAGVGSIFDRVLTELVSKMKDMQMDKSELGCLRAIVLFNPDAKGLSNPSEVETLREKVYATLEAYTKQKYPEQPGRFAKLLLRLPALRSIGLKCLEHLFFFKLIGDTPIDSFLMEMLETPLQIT

- β-galactosidase activity (yeast 6x EcRE-lacZ reporter), DMSO, without GRIP1 [1]: 2.3
- β-galactosidase activity (yeast 6x EcRE-lacZ reporter), RH 5992 10 µM, without GRIP1 [1]: 2.45
- β-galactosidase activity (yeast 6x EcRE-lacZ reporter), DMSO, without GRIP1 [2]: 3
- β-galactosidase activity (yeast 6x EcRE-lacZ reporter), RH 5992 10 µM, without GRIP1 [2]: 2.7
Molecule: full-length mosquito A. aegypti ecdysone receptor (AaEcR) (from UniProt P49880 1-776)

- β-galactosidase activity (yeast 6x EcRE-lacZ reporter), DMSO, without GRIP1 [3]: 2.73
- β-galactosidase activity (yeast 6x EcRE-lacZ reporter), RH 5992 10 µM, without GRIP1 [3]: 3
- β-galactosidase activity (yeast 6x EcRE-lacZ reporter), DMSO, with GRIP1 [4]: 0.223
- β-galactosidase activity (yeast 6x EcRE-lacZ reporter), DMSO, without GRIP1 [4]: 0.205
- β-galactosidase activity (yeast 6x EcRE-lacZ reporter), RH 5992 10 µM, with GRIP1 [4]: 0.492
- β-galactosidase activity (yeast 6x EcRE-lacZ reporter), RH 5992 10 µM, without GRIP1 [4]: 0.241
Molecule: full-length spruce budworm C. fumiferana ecdysone receptor (CfEcR)

- β-galactosidase activity (yeast 6x EcRE-lacZ reporter), DMSO, with GRIP1 [5]: 0.34
- β-galactosidase activity (yeast 6x EcRE-lacZ reporter), RH 5992 10 µM, with GRIP1 [5]: 2.32
- β-galactosidase activity (yeast 6x EcRE-lacZ reporter), DMSO, with GRIP1 [6]: 0.424
- β-galactosidase activity (yeast 6x EcRE-lacZ reporter), DMSO, without GRIP1 [6]: 0.152
- β-galactosidase activity (yeast 6x EcRE-lacZ reporter), RH 5992 10 µM, with GRIP1 [6]: 2.54
- β-galactosidase activity (yeast 6x EcRE-lacZ reporter), RH 5992 10 µM, without GRIP1 [6]: 0.182
- β-galactosidase activity (yeast 6x EcRE-lacZ reporter), DMSO, with GRIP1 [1]: 0.243
- β-galactosidase activity (yeast 6x EcRE-lacZ reporter), RH 5992 10 µM, with GRIP1 [1]: 1.86
- β-galactosidase activity (yeast 6x EcRE-lacZ reporter), DMSO, with GRIP1 [2]: 0.251
- β-galactosidase activity (yeast 6x EcRE-lacZ reporter), RH 5992 10 µM, with GRIP1 [2]: 2.07
- β-galactosidase activity (yeast 6x EcRE-lacZ reporter), DMSO, with GRIP1 [3]: 1.15
- β-galactosidase activity (yeast 6x EcRE-lacZ reporter), RH 5992 10 µM, with GRIP1 [3]: 1.41
- β-galactosidase activity (yeast 6x EcRE-lacZ reporter), DMSO, with GRIP1 [7]: 0.364
- β-galactosidase activity (yeast 6x EcRE-lacZ reporter), RH 5992 10 µM, with GRIP1 [7]: 1.28
- β-galactosidase activity (yeast 6x EcRE-lacZ reporter), DMSO, with GRIP1 [4]: 0.235
- β-galactosidase activity (yeast 6x EcRE-lacZ reporter), RH 5992 10 µM, with GRIP1 [4]: 0.59
Molecule: N-terminal truncated D. melanogaster EcR B-1 ecdysone receptor (Dm ΔN EcR) (from UniProt P34021 221-878)

- β-galactosidase activity (yeast 6x EcRE-lacZ reporter), DMSO, with GRIP1 [1]: 0.272
- β-galactosidase activity (yeast 6x EcRE-lacZ reporter), DMSO, without GRIP1 [1]: 0.194
- β-galactosidase activity (yeast 6x EcRE-lacZ reporter), RH 5992 10 µM, with GRIP1 [1]: 2.03
- β-galactosidase activity (yeast 6x EcRE-lacZ reporter), RH 5992 10 µM, without GRIP1 [1]: 0.209
- β-galactosidase activity (yeast 6x EcRE-lacZ reporter), DMSO, with GRIP1 [2]: 0.24
- β-galactosidase activity (yeast 6x EcRE-lacZ reporter), DMSO, without GRIP1 [2]: 0.177
- β-galactosidase activity (yeast 6x EcRE-lacZ reporter), RH 5992 10 µM, with GRIP1 [2]: 2.07
- β-galactosidase activity (yeast 6x EcRE-lacZ reporter), RH 5992 10 µM, without GRIP1 [2]: 0.184
- β-galactosidase activity (yeast 6x EcRE-lacZ reporter), DMSO, with GRIP1 [8]: 0.544
- β-galactosidase activity (yeast 6x EcRE-lacZ reporter), RH 5992 10 µM, with GRIP1 [8]: 2.03
- β-galactosidase activity (yeast 6x EcRE-lacZ reporter), DMSO, with GRIP1 [9]: 0.194
- β-galactosidase activity (yeast 6x EcRE-lacZ reporter), DMSO, without GRIP1 [9]: 0.187
- β-galactosidase activity (yeast 6x EcRE-lacZ reporter), RH 5992 10 µM, with GRIP1 [9]: 1.37
- β-galactosidase activity (yeast 6x EcRE-lacZ reporter), RH 5992 10 µM, without GRIP1 [9]: 0.196
- β-galactosidase activity (yeast 6x EcRE-lacZ reporter), DMSO, with GRIP1 [10]: 0.231
- β-galactosidase activity (yeast 6x EcRE-lacZ reporter), RH 5992 10 µM, with GRIP1 [10]: 1.98
- β-galactosidase activity (yeast 6x EcRE-lacZ reporter), DMSO, with GRIP1 [7]: 0.496
- β-galactosidase activity (yeast 6x EcRE-lacZ reporter), RH 5992 10 µM, with GRIP1 [7]: 2.67
- β-galactosidase activity (yeast 6x EcRE-lacZ reporter), DMSO, with GRIP1 [4]: 0.25
- β-galactosidase activity (yeast 6x EcRE-lacZ reporter), RH 5992 10 µM, with GRIP1 [4]: 3
Molecule: mosquito A. aegypti ecdysone receptor with deletion of the A/B transactivation domain (Aa ΔAB EcR) (from UniProt P49880 285-776)

- β-galactosidase activity (yeast 6x EcRE-lacZ reporter), DMSO, without GRIP1 [3]: 2.68
- β-galactosidase activity (yeast 6x EcRE-lacZ reporter), RH 5992 10 µM, without GRIP1 [3]: 3
- β-galactosidase activity (yeast 6x EcRE-lacZ reporter), DMSO, with GRIP1 [8]: 0.27
- β-galactosidase activity (yeast 6x EcRE-lacZ reporter), RH 5992 10 µM, with GRIP1 [8]: 2.06
- β-galactosidase activity (yeast 6x EcRE-lacZ reporter), DMSO, with GRIP1 [10]: 0.205
- β-galactosidase activity (yeast 6x EcRE-lacZ reporter), RH 5992 10 µM, with GRIP1 [10]: 0.456
- β-galactosidase activity (yeast 6x EcRE-lacZ reporter), DMSO, with GRIP1 [7]: 0.2
- β-galactosidase activity (yeast 6x EcRE-lacZ reporter), RH 5992 10 µM, with GRIP1 [7]: 1.03
- β-galactosidase activity (yeast 6x EcRE-lacZ reporter), DMSO, with GRIP1 [4]: 0.2
- β-galactosidase activity (yeast 6x EcRE-lacZ reporter), DMSO, without GRIP1 [4]: 0.209
- β-galactosidase activity (yeast 6x EcRE-lacZ reporter), RH 5992 10 µM, with GRIP1 [4]: 2.5
- β-galactosidase activity (yeast 6x EcRE-lacZ reporter), RH 5992 10 µM, with GRIP1 (Table 4 prints another value than Table 3 for this combination) [4]: 3
- β-galactosidase activity (yeast 6x EcRE-lacZ reporter), RH 5992 10 µM, without GRIP1 [4]: 0.234
Molecule: spruce budworm C. fumiferana ecdysone receptor with deletion of the AB transactivation domain (Cf ΔAB EcR)

- β-galactosidase activity (yeast 6x EcRE-lacZ reporter), DMSO, without GRIP1 [6]: 2.09
- β-galactosidase activity (yeast 6x EcRE-lacZ reporter), RH 5992 10 µM, without GRIP1 [6]: 1.95
B1: full-length D. melanogaster EcR B-1 ecdysone receptor (receptor, Drosophila melanogaster, UniProt P34021 1-878, looked up)
chain: MKRRWSNNGGFMRLPEESSSEVTSSSNGLVLPSGVNMSPSSLDSHDYCDQDLWLCGNESGSFGGSNGHGLSQQQQSVITLAMHGCSSTLPAQTTIIPINGNANGNGGSTNGQYVPGATNLGALANGMLNGGFNGMQQQIQNGHGLINSTTPSTPTTPLHLQQNLGGAGGGGIGGMGILHHANGTPNGLIGVVGGGGGVGLGVGGGGVGGLGMQHTPRSDSVNSISSGRDDLSPSSSLNGYSANESCDAKKSKKGPAPRVQEELCLVCGDRASGYHYNALTCEGCKGFFRRSVTKSAVYCCKFGRACEMDMYMRRKCQECRLKKCLAVGMRPECVVPENQCAMKRREKKAQKEKDKMTTSPSSQHGGNGSLASGGGQDFVKKEILDLMTCEPPQHATIPLLPDEILAKCQARNIPSLTYNQLAVIYKLIWYQDGYEQPSEEDLRRIMSQPDENESQTDVSFRHITEITILTVQLIVEFAKGLPAFTKIPQEDQITLLKACSSEVMMLRMARRYDHSSDSIFFANNRSYTRDSYKMAGMADNIEDLLHFCRQMFSMKVDNVEYALLTAIVIFSDRPGLEKAQLVEAIQSYYIDTLRIYILNRHCGDSMSLVFYAKLLSILTELRTLGNQNAEMCFSLKLKNRKLPKFLEEIWDVHAIPPSVQSHLQITQEENERLERAERMRASVGGAITAGIDCDSASTSAAAAAAQHQPQPQPQPQPSSLTQNDSQHQTQPQLQPQLPPQLQGQLQPQLQPQLQTQLQPQIQPQPQLLPVSAPVPASVTAPGSLSAVSTSSEYMGGSAAIGPITPATTSSITAAVTASSTTSAVPMGNGVGVGVGVGGNVSMYANAQTAMALMGVALHSHQEQLIGGVAVKSEHSTTA
